Experimental data taken from patent US20210380667A1 (NOVOZYMES A S, published 2021).
Substitutions are numbered along the chain they refer to. In names and notes the source's numbering stands.

What was measured:
[1] = target: B. lentus protease variant having the amino acid sequence of SEQ ID NO: 2 with the substitutions S9E N43R N76D V205I Q206L Y209W S259D N261W L262E (Bacillus lentus), P29600; experiment: cell-based or functional assay
[2] = target: T1, B. lentus protease having SEQ ID NO: 2 (Savinase) (Bacillus lentus, UniProt P29600 1-269); experiment: cell-based or functional assay
T1 sequence: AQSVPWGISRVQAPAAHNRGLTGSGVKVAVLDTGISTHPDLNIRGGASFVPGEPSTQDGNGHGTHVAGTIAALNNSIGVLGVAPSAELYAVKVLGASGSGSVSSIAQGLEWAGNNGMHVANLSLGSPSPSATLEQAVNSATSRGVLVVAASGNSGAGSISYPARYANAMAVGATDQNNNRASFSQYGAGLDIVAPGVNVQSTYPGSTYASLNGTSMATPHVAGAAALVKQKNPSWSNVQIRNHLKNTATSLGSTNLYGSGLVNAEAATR

B1: CI-2A variant (CI08) K21H+P25S+E26H+K30H+E33H (protein)
chain: HNLHTEWSHLVGHSVHEAKKVILQDKPEAQIIVLPVGTIVTMEYRIDRVRLFVDKLDNIAQVPRVG
Q: With B1 as the binder, how does the pH value at which the released protease activity peaks [1] read?
A: Its pH value at which the released protease activity peaks is 3.5 to 4 pH.

B2: CI-2A wildtype having the amino acid sequence of the mature protein of SEQ ID NO:1 (barley chymotrypsin inhibitor 2a) (other)
chain: B1 chain with H4K, S8P, H9E, H13K, H16E
Q: With B2 as the binder, how does the “pH value at which the released protease activity peaks” value [2] read?
A: Its value is roughly 3.5 pH.

Q: And the pH value at which the released protease activity peaks [1]?
A: The pH value at which the released protease activity peaks was 3 pH.

B3: CI-2A variant (CI10) K30H+E33H+K43H+P44A+P52A, P01053 19-84 (protein)
chain: B1 chain with H4K, S8P, H9E, K26H, P27A, P35A
Q: With B3 as the binder, how does the pH value at which the released protease activity peaks [1] read?
A: The pH value at which the released protease activity peaks was 3.5 to 4 pH.
